T1: DGI-2 polypeptide (UniProt Q15004 1-111, limits assumed)
T1 construct: Soluble recombinant protein coated at 500 ng/well; vector tag of pIVEX2.3-MCS not described for this construct; also called KIAA0101
T1 sequence (looked up): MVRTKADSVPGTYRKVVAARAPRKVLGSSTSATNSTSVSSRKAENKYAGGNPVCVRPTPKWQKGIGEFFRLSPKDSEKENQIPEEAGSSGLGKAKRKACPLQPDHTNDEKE


These binders were tested against T2, antibody raised against ETAG (assay: phage ELISA).
T2 construct: Coated at 500 ng/well; also called E-tag antibody
Procedure: (§1) For analysis of individual target binders, colonies were picked and phage prepared as described above using helper phage, M13KO7. Ninety-six-well microtiter plates were coated with 500 ng/well of specific target protein, 500 ng/well lactate dehydrogenase (LDH) irrelevant or non-specific target, 500 ng/well of positive control antibody raised against ETAG, and negative control of non-fat milk powder-PBS 2% at 4° C. overnight. Plates were then blocked with 350 microliters/well PBS containing 2% non-fat milk for 1 hr at room temperature. One hundred microliters per well of phage from isolated clones were added and plates were incubated at room temperature for 2 hr after centrifuging samples for 20 minutes at 3500 rpm at 4° C. The phage solution was then removed, and the wells were washed three times with PBS at room temperature. Antibody raised against M13 conjugated to horseradish peroxidase (Pharmacia) was diluted 1:3000 in PBS-Tween and added to each well (100 µl/well). Incubation was for 1 hr at room temperature, followed by washing with PBS-(0.5%) Tween 3 times as described. Color was developed by addition of ABTS solution (100 µl/well; Boehringer, Indianapolis, Ind.). Plates were analyzed at 405 nm. A clone was considered "positive" if the $A405$ of the well was $\geq$2-fold over background.

First: RRGVCEIFTGWCVGQTNERPAAAGAPVPYPDPLEPRP [DGI-2-20R-4-H626]
Second: RTLFINGGCCGKGSGGGRPLAAAGAPVPYPDPLEPRP [DGI-2-20F-PP-G1]
The “ETAG (OD)” value of the first is lower: 13.5 OD for the first, 21.8 OD for the second.

First: KVWGCGARRGWERLGHLNQVAAAGAPVPYPDPLEPRP [DGI-2-20F-PP-B10]
Second: GGSLPVKSGQLVTCCTSKGGAAAGAPVPYPDPLEPRP [DGI-2-20F-PP-F5]
The “ETAG (OD)” value of the first is higher: 27.1 OD for the first, 16.3 OD for the second.

First: CCAWNGVGVGGLGWRVVVGPAAAGAPVPYPDPLEPRP [DGI-2-20F-PP-H4]
Second: RGVNSDMPRLYICRADGQGQAAAGAPVPYPDPLEPRP [DGI-2-20F-PP-H6]
The “ETAG (OD)” value of the first is higher: 32.9 OD for the first, 18.9 OD for the second.

Going from VSGVPDGSMRAAQLASGYWCAAAGAPVPYPDPLEPRP [DGI-2-20F-PP-G2] to LWRRWSEGQLLGDGELRGDGAAAGAPVPYPDPLEPRP [DGI-2-20R-3-B52], the “ETAG (OD)” value rises from 5.6 OD to 15.8 OD.

Compared with VVGYAQGDGLEGGLGSSRDGSAAAGAPVPYPDPLEPRP [DGI-2-20F-PP-D8], SRGMAEAQFSAWPVLAVFPLAAAGAPVPYPDPLEPRP [DGI-2-20F-PP-H8] is higher in “ETAG (OD)” value: 2.6 OD for the first, 32.4 OD for the second.

First: FGSTAYADMLSQFRKFAMNISAAAGAPVPYPDPLEPRP [DGI-2-20F-PP-E1]
Second: DGRGWGAMWMRWAEGLGADIAAAGAPVPYPDPLEPRP [DGI-2-20R-4-G114]
The “ETAG (OD)” value of the first is higher: 33.4 OD for the first, 16.5 OD for the second.

Compared with LSLEGGWMWDTKGGDGGSAQAAAGAPVPYPDPLEPRP [DGI-2-20R-4-F93], MGADTCMGGKMPFDQMFGAVAAAGAPVPYPDPLEPRP [DGI-2-20F-PP-E10] is higher in “ETAG (OD)” value: 19.5 OD for the first, 44.6 OD for the second.

First: GAIRLSGAAWTASRTGGRASAAAGAPVPYPDPLEPRP [DGI-2-20F-PP-E7]
Second: GRWDGWEVCGIWGADDCASGAAAGAPVPYPDPLEPRP [DGI-2-20R-4-H1]
The “ETAG (OD)” value of the first is higher: 21.5 OD for the first, 14 OD for the second.

Compared with SAFGCPLPRALGGGGARFYAAAAGAPVPYPDPLEPRP [DGI-2-20F-PP-E11], WWREWVDGSLRGGGGTVLKDAAAGAPVPYPDPLEPRP [DGI-2-20R-3-A122] is lower in “ETAG (OD)” value: 15.2 OD for the first, 15.1 OD for the second.

The binders below were run against T3, lactate dehydrogenase (LDH) (assay: phage ELISA).
T3 construct: Coated at 500 ng/well as non-specific target; also called LDH polypeptide
Procedure: as §1

Going from RRGVCEIFTGWCVGQTNERPAAAGAPVPYPDPLEPRP [DGI-2-20R-4-H626] to RTLFINGGCCGKGSGGGRPLAAAGAPVPYPDPLEPRP [DGI-2-20F-PP-G1], the “LDH (OD)” value falls from 1.1 OD to 1 OD.

First: KVWGCGARRGWERLGHLNQVAAAGAPVPYPDPLEPRP [DGI-2-20F-PP-B10]
Second: GGSLPVKSGQLVTCCTSKGGAAAGAPVPYPDPLEPRP [DGI-2-20F-PP-F5]
The “LDH (OD)” value of the first is lower: 0.8 OD for the first, 0.9 OD for the second.

Going from CCAWNGVGVGGLGWRVVVGPAAAGAPVPYPDPLEPRP [DGI-2-20F-PP-H4] to RGVNSDMPRLYICRADGQGQAAAGAPVPYPDPLEPRP [DGI-2-20F-PP-H6], the “LDH (OD)” value falls from 1 OD to 0.8 OD.

Going from VSGVPDGSMRAAQLASGYWCAAAGAPVPYPDPLEPRP [DGI-2-20F-PP-G2] to LWRRWSEGQLLGDGELRGDGAAAGAPVPYPDPLEPRP [DGI-2-20R-3-B52], the “LDH (OD)” value falls from 1.1 OD to 1 OD.

Going from VVGYAQGDGLEGGLGSSRDGSAAAGAPVPYPDPLEPRP [DGI-2-20F-PP-D8] to SRGMAEAQFSAWPVLAVFPLAAAGAPVPYPDPLEPRP [DGI-2-20F-PP-H8], the “LDH (OD)” value falls from 1.1 OD to 0.9 OD.

Going from FGSTAYADMLSQFRKFAMNISAAAGAPVPYPDPLEPRP [DGI-2-20F-PP-E1] to DGRGWGAMWMRWAEGLGADIAAAGAPVPYPDPLEPRP [DGI-2-20R-4-G114], the “LDH (OD)” value rises from 1 OD to 1.2 OD.

First: LSLEGGWMWDTKGGDGGSAQAAAGAPVPYPDPLEPRP [DGI-2-20R-4-F93]
Second: MGADTCMGGKMPFDQMFGAVAAAGAPVPYPDPLEPRP [DGI-2-20F-PP-E10]
The “LDH (OD)” value of the first is lower: 1.1 OD for the first, 1.2 OD for the second.

First: GAIRLSGAAWTASRTGGRASAAAGAPVPYPDPLEPRP [DGI-2-20F-PP-E7]
Second: GRWDGWEVCGIWGADDCASGAAAGAPVPYPDPLEPRP [DGI-2-20R-4-H1]
The “LDH (OD)” value of the first is lower: 0.9 OD for the first, 1.2 OD for the second.

Compared with SAFGCPLPRALGGGGARFYAAAAGAPVPYPDPLEPRP [DGI-2-20F-PP-E11], WWREWVDGSLRGGGGTVLKDAAAGAPVPYPDPLEPRP [DGI-2-20R-3-A122] is higher in “LDH (OD)” value: 0.9 OD for the first, 1 OD for the second.

The binders below were run against T1, DGI-2 polypeptide (assay: phage ELISA).
Procedure: as §1

First: RRGVCEIFTGWCVGQTNERPAAAGAPVPYPDPLEPRP [DGI-2-20R-4-H626]
Second: RTLFINGGCCGKGSGGGRPLAAAGAPVPYPDPLEPRP [DGI-2-20F-PP-G1]
The “DGI-2 (OD)” value of the first is higher: 9.6 OD for the first, 1.4 OD for the second.

Compared with KVWGCGARRGWERLGHLNQVAAAGAPVPYPDPLEPRP [DGI-2-20F-PP-B10], GGSLPVKSGQLVTCCTSKGGAAAGAPVPYPDPLEPRP [DGI-2-20F-PP-F5] is higher in “DGI-2 (OD)” value: 1.9 OD for the first, 2.3 OD for the second.

First: CCAWNGVGVGGLGWRVVVGPAAAGAPVPYPDPLEPRP [DGI-2-20F-PP-H4]
Second: RGVNSDMPRLYICRADGQGQAAAGAPVPYPDPLEPRP [DGI-2-20F-PP-H6]
The “DGI-2 (OD)” value of the first is higher: 2.1 OD for the first, 1.6 OD for the second.

Going from VSGVPDGSMRAAQLASGYWCAAAGAPVPYPDPLEPRP [DGI-2-20F-PP-G2] to LWRRWSEGQLLGDGELRGDGAAAGAPVPYPDPLEPRP [DGI-2-20R-3-B52], the “DGI-2 (OD)” value rises from 2.4 OD to 8.7 OD.

Going from VVGYAQGDGLEGGLGSSRDGSAAAGAPVPYPDPLEPRP [DGI-2-20F-PP-D8] to SRGMAEAQFSAWPVLAVFPLAAAGAPVPYPDPLEPRP [DGI-2-20F-PP-H8], the “DGI-2 (OD)” value falls from 2.3 OD to 1.6 OD.

Going from FGSTAYADMLSQFRKFAMNISAAAGAPVPYPDPLEPRP [DGI-2-20F-PP-E1] to DGRGWGAMWMRWAEGLGADIAAAGAPVPYPDPLEPRP [DGI-2-20R-4-G114], the “DGI-2 (OD)” value rises from 1.8 OD to 12.9 OD.

First: LSLEGGWMWDTKGGDGGSAQAAAGAPVPYPDPLEPRP [DGI-2-20R-4-F93]
Second: MGADTCMGGKMPFDQMFGAVAAAGAPVPYPDPLEPRP [DGI-2-20F-PP-E10]
The “DGI-2 (OD)” value of the first is higher: 9 OD for the first, 2 OD for the second.

Going from GAIRLSGAAWTASRTGGRASAAAGAPVPYPDPLEPRP [DGI-2-20F-PP-E7] to GRWDGWEVCGIWGADDCASGAAAGAPVPYPDPLEPRP [DGI-2-20R-4-H1], the “DGI-2 (OD)” value rises from 1.6 OD to 9.3 OD.

Compared with SAFGCPLPRALGGGGARFYAAAAGAPVPYPDPLEPRP [DGI-2-20F-PP-E11], WWREWVDGSLRGGGGTVLKDAAAGAPVPYPDPLEPRP [DGI-2-20R-3-A122] is higher in “DGI-2 (OD)” value: 2 OD for the first, 9.6 OD for the second.

Going from RRGVCEIFTGWCVGQTNERPAAAGAPVPYPDPLEPRP [DGI-2-20R-4-H626] to RTLFINGGCCGKGSGGGRPLAAAGAPVPYPDPLEPRP [DGI-2-20F-PP-G1], the DGI-2/LDH falls from 8.8 ratio to 1.4 ratio.

First: KVWGCGARRGWERLGHLNQVAAAGAPVPYPDPLEPRP [DGI-2-20F-PP-B10]
Second: GGSLPVKSGQLVTCCTSKGGAAAGAPVPYPDPLEPRP [DGI-2-20F-PP-F5]
The DGI-2/LDH of the first is lower: 2.4 ratio for the first, 2.5 ratio for the second.

Compared with CCAWNGVGVGGLGWRVVVGPAAAGAPVPYPDPLEPRP [DGI-2-20F-PP-H4], RGVNSDMPRLYICRADGQGQAAAGAPVPYPDPLEPRP [DGI-2-20F-PP-H6] is lower in DGI-2/LDH: 2.2 ratio for the first, 1.9 ratio for the second.

Going from VSGVPDGSMRAAQLASGYWCAAAGAPVPYPDPLEPRP [DGI-2-20F-PP-G2] to LWRRWSEGQLLGDGELRGDGAAAGAPVPYPDPLEPRP [DGI-2-20R-3-B52], the DGI-2/LDH rises from 2.1 ratio to 8.4 ratio.

First: VVGYAQGDGLEGGLGSSRDGSAAAGAPVPYPDPLEPRP [DGI-2-20F-PP-D8]
Second: SRGMAEAQFSAWPVLAVFPLAAAGAPVPYPDPLEPRP [DGI-2-20F-PP-H8]
The DGI-2/LDH of the first is higher: 2.2 ratio for the first, 1.9 ratio for the second.

First: FGSTAYADMLSQFRKFAMNISAAAGAPVPYPDPLEPRP [DGI-2-20F-PP-E1]
Second: DGRGWGAMWMRWAEGLGADIAAAGAPVPYPDPLEPRP [DGI-2-20R-4-G114]
The DGI-2/LDH of the first is lower: 1.9 ratio for the first, 11 ratio for the second.

First: LSLEGGWMWDTKGGDGGSAQAAAGAPVPYPDPLEPRP [DGI-2-20R-4-F93]
Second: MGADTCMGGKMPFDQMFGAVAAAGAPVPYPDPLEPRP [DGI-2-20F-PP-E10]
The DGI-2/LDH of the first is higher: 8.4 ratio for the first, 1.7 ratio for the second.

Going from GAIRLSGAAWTASRTGGRASAAAGAPVPYPDPLEPRP [DGI-2-20F-PP-E7] to GRWDGWEVCGIWGADDCASGAAAGAPVPYPDPLEPRP [DGI-2-20R-4-H1], the DGI-2/LDH rises from 1.8 ratio to 7.8 ratio.

First: SAFGCPLPRALGGGGARFYAAAAGAPVPYPDPLEPRP [DGI-2-20F-PP-E11]
Second: WWREWVDGSLRGGGGTVLKDAAAGAPVPYPDPLEPRP [DGI-2-20R-3-A122]
The DGI-2/LDH of the first is lower: 2.2 ratio for the first, 9.4 ratio for the second.

Reference: US7056679 (ANTYRA, dated 2006)
